The target of one data set is T1, ChxH (Streptomyces sp. YIM 56141, UniProt I7D037).
T1 sequence (I7D037 1-262): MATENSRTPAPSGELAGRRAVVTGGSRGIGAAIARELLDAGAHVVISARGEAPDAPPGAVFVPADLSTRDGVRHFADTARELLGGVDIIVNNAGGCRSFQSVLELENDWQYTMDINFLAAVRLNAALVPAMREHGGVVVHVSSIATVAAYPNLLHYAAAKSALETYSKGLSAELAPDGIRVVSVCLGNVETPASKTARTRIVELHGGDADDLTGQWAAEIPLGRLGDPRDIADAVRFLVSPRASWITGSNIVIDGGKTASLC
Description: steady-state kinetics, initial velocity, Michaelis-Menten. The settings on record: read-out: apparent KM; saturating NADP+; reverse reaction 1 to 10.

Substrate in data set [1]: NC(=O)c1ccc[n+]([C@@H]2O[C@H](COP(=O)(O)OP(=O)(O)OC[C@H]3O[C@@H](n4cnc5c(N)ncnc54)[C@H](O)[C@@H]3O)[C@@H](O)[C@H]2O)c1
Description: purified protein. The settings on record: saturating 1; reverse reaction 1 to 10; varied: cofactor.

Substrate in data set [2]: NC(=O)c1ccc[n+]([C@@H]2O[C@H](COP(=O)(O)OP(=O)(O)OC[C@H]3O[C@@H](n4cnc5c(N)ncnc54)[C@H](OP(=O)(O)O)[C@@H]3O)[C@@H](O)[C@H]2O)c1
Description: purified protein. The settings on record: saturating 1; reverse reaction 1 to 10; varied: cofactor.

As a reminder, the Km is the substrate concentration at which the rate is half of its maximum.

As for `C[C@@H]1C[C@@H]([C@H](O)CC2CC(=O)NC(=O)C2)C(=O)[C@@H](C)C1` [compound 1, Cycloheximide], the Km on ChxH came out at 99 ± 7 µM.

B1: ChxH (Streptomyces sp. YIM 56141) (protein)
chain: T1 sequence (I7D037 1-262)
For the molecule B1, in the data set “purified protein [1]”, the Km came out at 233 ± 37 µM and the kcat was 13 ± 3 min^–1. In the data set “purified protein [2]”, the Michaelis-Menten constant (Km) was 76 ± 5 µM and the kcat is reported as 387 ± 23 min^–1.

The record behind these values is article PMC4051428 (Organic Letters, 2014).
